Results reported in US20250243263A1 (VOYAGER THERAPEUTICS, published 2025).
Where no end group is shown, it is not given here. [ ]: non-standard residue; d: D form. pT = C[C@@H](OP(=O)(O)O)[C@H](N)C(=O)O; pS = N[C@@H](COP(=O)(O)O)C(=O)O

T1: AT8 peptide (amino acids 195-215 of tau) (human, phospho-peptide, phosphorylated sites not stated in the example; immobilized on streptavidin tips)
T1 peptide: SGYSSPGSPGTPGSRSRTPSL

T2: AC04 peptide (human, phosphothreonine at T212 and T217 of tau (peptide positions 4, 9))
T2 construct: Tau-derived peptide with an N-terminal Cys
T2 peptide: CSRTPSLPTPPTREPK

T3: wtTau C2 (human)
T3 peptide: PTREPKKVA

T4: tPeptide 5 (204-222) (human)
T4 peptide: GTPGSRSR[pT]P[pS]LP[pT]PPTRE


Experiments:
[1] = biological target: T5, iPHF (UniProt P10636-8 2-441, limits assumed); assay: BLI (Octet), antibody on biosensor tip, iPHF in solution
T5 construct: also called iPHF tau
Experimental: Anti-human tau antibodies were assessed for affinity for iPHF by Octet (ForteBio, Menlo Park, CA) analysis. A set of recombinant human IgG1 antibodies were prepared with clone-specific variable domain pairs selected from those presented in Table 1 and human IgG1 constant domains. Candidate antibodies were immobilized on biosensor tips (ForteBio) in kinetic buffer (ForteBio). Biosensor tips were then washed before introduction of a solution of iPHF in kinetic buffer for analysis of association and dissociation with candidate antibodies.

[2] = biological target: T5, iPHF; assay: follow up selectivity analysis, iPHF over wild-type tau; method not stated
[3] = biological target: T6, Tau191-214 phospho-peptide (pS199) (human, phosphoserine at S199 of tau (peptide position 9); SCBio-4PEG label); assay: one point ELISA
T6 construct: also called pS199 peptide
Source text: (§1) One-point ELISA was used to determine differential binding based on the individual phosphorylation patterns of each peptide. OD values (450 nm) were collected (as shown in Table 13), where a stronger positive signal is shown as a higher OD value, which is indicative of increased binding.

[4] = biological target: T7, pS199-old (SCBio-4PEG-Peptide, Tau191-214) (human, phosphoserine at S199 of tau by the row label; SCBio-4PEG label); assay: one point ELISA
T7 construct: The suffix -old is not explained
Source text: as §1

[5] = biological target: T5, iPHF; assay: SPR (Biacore 8K)
[6] = biological target: T8, enriched paired helical filament tau protein (ePHF; sarkosyl insoluble tau) (human, UniProt P10636 2-758); assay: cell-based or functional assay
[7] = biological target: T8, enriched paired helical filament tau …; assay: direct ELISA, ePHF coated
Experimental: (§2) A set of recombinant human IgG1 antibodies were prepared with clone-specific variable domain pairs selected from those presented in Table 1 and human IgG1 constant domains. These candidate antibodies were analyzed for binding to ePHF and specificity for ePHF over wild type tau by direct ELISA.
(§3) For direct ePHF and wildtype tau ELISA, plates were first coated with ePHF or wild type tau. Antigen solutions were prepared in PBS and 50 μL were pipetted into each well. Plates were covered and incubated for one hour at 37° C. or overnight at 4° C. Plates were then washed and blocked by addition of 150 μl of blocking buffer to each well and incubated one hour at room temperature. Plates were then washed before addition of serially diluted candidate antibody samples prepared in blocking buffer. Detection of candidate antibody binding was carried out by washing plates and adding a solution of enzyme-labeled secondary antibody in blocking buffer to each well. Secondary antibody binding was detected by addition of substrate and spectrophotometric analysis of resulting reaction product.

[8] = biological target: T1, AT8 peptide (amino acids 195-215 of tau); assay: BLI (Octet), phospho-peptide on streptavidin tips
Experimental: Briefly, phospho-peptides were immobilized on streptavidin biosensor tips and the binding ability of each antibody was assessed using an eight-point concentration gradient.

[9] = biological target: T8, enriched paired helical filament tau …; assay: follow up selectivity analysis, ePHF over wild-type tau; method not stated
[10] = biological target: T2, AC04 peptide; assay: one point ELISA
Source text: as §1

[11] = biological target: T3, wtTau C2; assay: one point ELISA
Source text: as §1

[12] = biological target: T4, tPeptide 5 (204-222); assay: one point ELISA
Source text: as §1

[13] = biological target: T9, wild type tau (human, UniProt P10636 2-758); assay: direct ELISA, wild type tau coated
T9 construct: also called WT
Experimental: as §2, §3

T6 sequence (peptide, as listed by the source): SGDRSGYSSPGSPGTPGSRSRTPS
T9 sequence (P10636 other isoform, or with tags, fused parts or gaps limits assumed): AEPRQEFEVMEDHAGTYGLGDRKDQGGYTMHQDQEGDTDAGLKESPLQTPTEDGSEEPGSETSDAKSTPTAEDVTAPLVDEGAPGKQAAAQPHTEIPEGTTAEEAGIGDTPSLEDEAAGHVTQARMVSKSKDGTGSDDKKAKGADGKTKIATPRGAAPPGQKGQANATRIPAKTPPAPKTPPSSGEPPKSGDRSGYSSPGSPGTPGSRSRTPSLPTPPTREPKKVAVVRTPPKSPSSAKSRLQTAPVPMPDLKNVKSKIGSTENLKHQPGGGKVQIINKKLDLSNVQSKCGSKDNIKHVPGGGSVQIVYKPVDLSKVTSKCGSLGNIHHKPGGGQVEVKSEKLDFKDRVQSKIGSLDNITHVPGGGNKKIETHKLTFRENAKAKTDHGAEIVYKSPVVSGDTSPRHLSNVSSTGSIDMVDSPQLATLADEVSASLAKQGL
T8 sequence (P10636 other isoform, or with tags, fused parts or gaps limits assumed): as above
T5 sequence (P10636 other isoform, or with tags, fused parts or gaps limits assumed): as above

| Binder | Kd [1] [nM] | selectivity iPHF:WT [2] [fold] | Kd [5] [nM] | Average IC50 (nM) for inhibiting tau aggregation after immunodepletion of ePHF (tau RD Biosensor cells) [6] [nM] | EC50 [7] [nM] | selectivity ePHF:WT [9] [fold] | other results |
| --- | --- | --- | --- | --- | --- | --- | --- |
| VY018 (antibody, V domains shown) VH: QVQLQESGPGLVKPSETLSLTCTVSGGSISNYYWSWIRQPAGKGLEWIGRIYTSGDTYYNPSLQSRVTMSVDTSKNQFSLKLSAVTAADTAVYYCARAGIVGTPGLGMDVWGQGTTVTVSS VL: SYELTQPPSVSVSPGQTARITCSGEALPKQYAYWYQQKPGQAPVLVIYKDSERPSGIPERFSGSSSGTTVTLTISGVQAEDEADYYCQSADSSGTYRVFGGGTKLTVL | 3 | > 73 | – | – | – | – | – |
| VY007 (antibody, V domains shown) VH: EVQLVESGGGLVQPGGSLRLSCAASRFTFSNYNMNWVRQAPGKGLEWISYISSSSSTIYYADSVKGRFTISRDNAKNSLSLQMNSLRDEDTAVYYCASLGRGYWGQGTLVTVSS VL: not shown | 0.6 | > 109 | 0.596 | 36.3 | 0.18 | > 23 | OD (450 nm) [3]: 0.057 OD450; OD (450 nm) [4]: 0.057 OD450; Kd [8]: 0.0182 nM |
| VY001 (antibody, V domains shown) VH: EVQLVESGGGLVQPGGSLRLSCAASGFTFSSYNMNWVRQAPGKGLEWISYISSSSNTIYYADSVKGRFTVSRDNAKNSLYLQMNSLRDEDTAVYYCATLGRGYWGQGTLVIASS VL: not shown | 7.7 | > 30 | 0.293 | 12.5 | 0.02 | > 181 | OD (450 nm) [3]: 0.059 OD450; OD (450 nm) [4]: 0.059 OD450; Kd [8]: 0.00435 nM |
| VY006 (antibody, V domains shown) VH: EVQLVESGGGLVQPGGSLRLSCAASGFTFSSYTMNWVRQAPGKGLEWVSYISSSSSTIYYADSVKGRFTISRDNAKNSLYLQMNSLRDEDTAVYYCASLGRGDCWGQGTLVTVSS VL: not shown | 1.5 | > 145 | 0.356 | 8.3 | 0.11 | > 40 | OD (450 nm) [3]: 0.054 OD450; OD (450 nm) [4]: 0.063 OD450; Kd [8]: 0.00382 nM |
| VY005 (antibody, V domains shown) VH: EVQLVESGGGLVQPGGSLRLSCAASGFTFSSYSMNWVRQAPGKGLEWISYISSSNSTIKYADSVKGRFTISRDNAKNSLYLQMNSLRDEDTAVYYCARRSLGDYWGQGTLVIVSS VL: DIQLTQSPSFLSASVGDRVTITCRASQGISCSLAWYQQKPGKAPKLLIYAASTLQSGVPSRFSGSGSGTEFTLTISSLQPEDFATYYCQQFNSYPFTFGPGTKVDIK | 1 | – | – | – | 0.07 | – | OD (450 nm) [10]: 2.83 OD450; OD (450 nm) [11]: 0.153 OD450; OD (450 nm) [12]: 0.288 OD450 |
| VY013 (antibody, V domains shown) VH: QVTLKESGPVLVKPTETLTLTCTVSGFSLINARMAVSWIRQPPGKALEWLAHIFSNDEKSYSTSLKSRLTISKDTSKSQVVLIMTNMDPVDTATYYCARIRGYSYNYGMDVWGQGTTVTVSS VL: DIVMTQSPLSLPVIPGEPASISCRSSQSLLHSNGYIYLDWYLQKPGQSPQLLIYVGSNRASGVPDRFSGSGSGTDFKLKISRVEAEDVGVYYCMQTLQIPRTFGGGTKVEIK | 2.9 | – | – | – | 0.06 | – | EC50 [13]: 0.98 nM |
| VY009 (antibody, V domains shown) VH: QITLKESGPTLVKPTQTLTLTCTLSGFSLSTSEVGVGWIRQPPGKALEWLAIIYWNDHKRYSPSLKNRLTFTKDTSKNQVVLTMTNMDPVDTATYYCARRVTGEGFDPWGQGTLVTVSS VL: SYELTQPPSVSVSPGQTARITCSGDALPKQYAYWYQQKPGQAPVLVIFKDTERPSGIPERFSGSSSGTTVTLTISGVQAEDEADYYCQSADSSGSYVFGTGTKVTVL | 1.1 | – | – | – | 1.74 | – | – |
| VY019 (antibody, V domains shown) VH: QVQLQESGPGLVKPSETLSLTCTVSGGSISSYYWTWIRQPAGKGLEWIGRIDTSGSTNYNPSLKSRVTMSIDTSKKQFSLKLSSVTAADTAVYYCARGGDGYRYWGQGTLVTVSS VL: SYELTQPPSVSVSPGQTARITCSGDALPKQYACWYQQKPGQAPVLVIYKDSERPSGIPERFSGSSSGTTVTLTITGVQAEDEADYYCQSTDSSGSWVFGGGTKLTVL | – | – | – | – | – | – | binding result [7]: no binding; binding result [13]: no binding |
| VY004 (antibody, V domains shown) VH: EVQLVESGGGLVQAGGSLRLSCAASGFTFSDYSMNWVRQAPGKGLEWVSYIRSSSSIIYYADSVKGRFTISRDNAKNSLHLQMNSLRDEDTAVYYCARRGHFDYWGQGTLVTVSS VL: EIVLTQSPATLSLSPGERATLSCRASQSVSDYLAWYQQKPGQAPRLFIYDVSKRATGIPARFSGSGSGTDFTLTISSLEPEDFAVYYCQQRSNWPLTFGGGTKVEIK | 3.7 | > 382 | 11.7 | 9.39 | 0.07 | > 59 | OD (450 nm) [10]: 2.85 OD450; OD (450 nm) [11]: 0.169 OD450; OD (450 nm) [12]: 0.382 OD450 |
| VY017 (antibody, V domains shown) VH: EVQLVESGGGLVQPGGSLRLSCAASGFTFSSYSMNWVRQAPGKGLEWVSYIRSSSSTIYYADSVKGRFTISRDNAKKSLYLQMNSLRDEDTAVYYCARRSIADYWGQGTLVTVSS VL: EIVLTQSPATLSSSPGERATLSCRASQSVTSYLNWYQQKPGQAPRLLIYDASNRATGIPARFSGSGSGTDFTLTISSLEPEDFALYYCQQRSNWPYTFGQGTKLEIK | 3.7 | – | – | – | – | – | – |
| VY012 (antibody, V domains shown) VH: EVQLLESGGGLVQPGGSLRLSCAASGFTYSSYAMSWVRRAPGKGLEWISIISGSSSITYYADSMKGRFTISRDNSKNTLFLQMNSLRAEDTAVYYCAKGGRYGYFQHWGQGTLVTVSS VL: SYVLTQPPSVSVAPGQTARITCGGNNIGSKSVHWYQQKPGQAPVLVVYDDSDRPSGIPERFSGSNSGNTATLTISRVEAGDEADYYCQVWDSSSDPVVFGGGTMLTVL | 5.1 | – | – | – | 0.04 | – | EC50 [13]: 0.01 nM |
| VY016 (antibody, V domains shown) VH: EVQLVESGGGLVQPGGSLRLSCAASGFTFSSYSMNWVRQAPGKGLEWVSYISRSGSTIYYADSVEGRFTISRDNAYNSLYLQMISLRDDDTAVYYCARGNWAYWGQGILVTVSS VL: QSVLTQPPSVSGAPGQRVTISCTGSSSNIGAGYDVHWYQQLPGTAPKLLIYGNSNRPSGVPDRFSGSKSGTSASLAITGLQAEDETDFYCQSYDSSLSGSVFGGGTKLTVL | – | – | – | – | – | – | binding result [7]: no binding; binding result [13]: no binding |
